The RNAGym collection of RNA variant scans (doi:10.1073/pnas.2313332121)

B1: TPR t1 (parent)
chain: GACCAAUCUGCCCUCAGAGCUCGAGAACAUCUUCGGAUGCAGAGGAGGCAGGCUUCGGUGGCGCGAUAGCGCCAACGUCCUCAACCUCCAAUGCAUCCCACCACAUGAUGAUGCCUGAAGAGCCUUGGUUUUUUG

Variants of: B1
Experiment: polymerase ribozyme fitness, log enrichment relative to wild type (log ratio); higher = more active; in vitro selection for triplet polymerase activity
In short: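 Fitness measures genotype enrichment against wild-type enrichment on a logarithmic scale, with inverse-variance-weighted averaging of replicates. The logarithm is base 2, and genotypes were kept only with ≥10 input reads and ≥1 read per output in Illumina sequencing. The sequenced libraries came from one triplicate in vitro selection round, including frozen incubation at −7 °C, of PCR-built, transcribed mutant libraries of each subunit of a heterodimeric triplet polymerase ribozyme.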

| Variant | polymerase ribozyme fitness (log ratio) |
| --- | --- |
| GACCAAUCUGCCCUCAGAGCUCGAGAACAUCUUCGGAUGCAGGGGAGGCAGGCUUCGGUGGCGCGAUAGCGCCAACGUCCUCAACCUCCAAUGCAUCCCACCACAUGAUGAUGCCUGAAGAGCAUUGGUUUUUUG | 0.39 |
| GACCAAUCUGCCCUCAGAGCUCGAGAACAUCUUCGGAUGCAGAGGAGGCAGACUUCGGUGGCGCGAUAGCGCCAACGUCCUUAACCUCCAAUGCAUCCCACCACAUGAUGAUGCCUGAAGAGCCUUGGUUUUUUG | -0.917 |
| GACCAAUCUGCCCUCAGAGCUCGAGAACAUCUUCGGAUGCAGAGGAGGCAGGCUUCGGUGGCGCGAUAGCGCCAACGUCCUCAACCUCCAAUGUAUCCCACCACAUGAUGAUGCCUGAACAGCCUUGGUUUUUUG | 0.688 |
| GACCAAUCUGCCCUCAGAGCUCGAGAACAUCUUCGGAUGCAGAGGAGGCAGGCUUCGGUGGCGCGAUAGCGCCAACGCCCUCAACCUCCAAUGCAUCCCACUACAUGAUGAUGCCUGAAGAGCCUUGGUUUUUUG | -2.14 |
| GACCAAUCUGCCCUCAGAGCUCGAGAACAUCUUCGGAUGCAGAGGAGGCAGGCUUCGGUGUCGCGAUAGCGCCAACGUCCUCAACCUCCAAUUCAUCCCACCACAUGAUGAUGCCUGAAGAGCCUUGGUAUUUUG | -1.63 |
| GACCAAUCUGCCCUCAGAGCUCGAGAACAUCUUCGGAUGCAGAUGAGGCAGGCUUCGGUGGCGCGAUAGCGGCAACGUCCUCAACCUCCAAUGCAUCCCACCACAUGAUGAUGCCUGAAGAGCCUUGGUUUUUUG | -1.28 |
| GACCAAUCUGCCCUCAGAGCUCGAGAACAUCUUCGGAUGCAAAGGAGGCAGGCUUCGGUGGCGCGAUAGCGUCAACGUCCUCAACCUCCAAUGCAUCCCACCACAUGAUGAUGCCUGAAGAGCCUUGGUUUUUUG | -2.31 |
| GACCAAUCUGCCCUCAGAGCUCGAGAACAUCUUCGGAUGCAGAGGACGCAGGCUUCGGUGGCGCGAUAGCGCCAACGUCCUCAACCUCCAAUGCAUCCCACAACAUGAUGAUGCCUGAAUAGCCUUGGUUUUUUG | -3.97 |
| GACCAAUCUGCCCUCAGAGCUCGUGAACAUCUUCGGAUGUAGAGGAGGCAGGCUUCGGUGGCGCGAUAGCGCCAACGUCCUCAACCUCCAAUGCAUCCCACCACAUGAUGAUGCCUGAAGAGCCUUGGUUUUUUG | -6.96 |
| GACCAAUCUGCCCUCAGAGCUCGAGAACAUCUUCGGAUGCAGAGGAGGCAGGCUUCGUUGGCGCGAUAGCGCCAACGUCCUCAACCUCCAAUGCAUCCCACCACAUGAUGAUGUCUGAAGAGCCUUGGUUUUUUG | -2.25 |
| GACCAAUCUGCCCUCAGCGCUCGAGAACAUCUUCGGAUGCAGAGGAGGCAGGCUUCGGUGGUGCGAUAGCGCCAACGUCCUCAACCUCCAAUGCAUCCCACCACAUGAUGAUGCCUGAAGAGCCUUGGUUUUUUG | -2.83 |
| GACCAAUCUGCCCUCAGAGCUCGAGAACAUCUUCGGAUGCAGAGGAGGCAGGCUUCGGUGGCGCGAUAGCGCCAACGUCCUCAAUCUCCAAUGCAUCCCACCACAUGAUGAAGCCUGAAGAGCCUUGGUUUUUUG | 0.416 |
| GACCAAUGUGCCCUCAGAGCUCGAGAACAUCUUCAGAUGCAGAGGAGGCAGGCUUCGGUGGCGCGAUAGCGCCAACGUCCUCAACCUCCAAUGCAUCCCACCACAUGAUGAUGCCUGAAGAGCCUUGGUUUUUUG | -2.23 |
| GACCAAUCUGCCCUCAGAGCUCGAGAACAUCUUCGGAUUCAGAGGAGGCAGGCUUCGGUGGCGCGAUAGCGCCAACGUCCUCAACCUCCAAAGCAUCCCACCACAUGAUUAUGCCUGAAGAGCCUUGGUUUAUUG | -5.12 |
| GACCAAUCUGCCCUCAGAGCUCGAGAACAUCUUCGGAUGCAGAGGAGGCAGGCUUCGGUGGCGCGAUAGCGCCAACGUCCUCAACCUCCAAUCCAUCCCACCAAAUGAUGAUGCCUGUAGAGCCUUGGUUUUUUG | -1.82 |
| GACCAAUCUGCCCUCAGAGUUCGAGAACAUCUUCGGAUGCAGAGGAGGCAGGCUUCGGUGGCGCGAUAGCGACAACGUCCUCAACCUCCAAUGCAUCCCACCACAUGAUGAUGCCUGAAGAGCCUUGGUUUUUUG | -1.55 |
| GACCAAUCUGCCCUCAGAGCUCGGGAACAUCUUCGGAUGCAGAGGAGGCAGGCUUCGGUGGCGCGAUAGCGCCAACGUCCUCAACCUCCAAUGCAUCCCACCACAUGAUGAUGCAUGAAGAGCCUUGGUUUUUUG | -1.25 |
| GACCAAUCUGCCCUCAGAGCUCGAGAACAUCUUCGGAUGCAGAGGAGGCAGGCUUCGGUGGCGCGAUAGCGCCAACGUCCUCAACCUCCAAUGCAUCCCACCACCUGAUGAUGCCUGAAAUGCCUUGGUUUUUUG | -1.51 |
| GCCCAAUCUGCGCUCAGAGCUCGAGAACAUCUUCGGAUGCAGAGGAGGCAGGCUUCGGUGGCGCGAUAUCGCCAACGUCCUCAACCUCCAAUGCAUCCCACCACAUGAUGAUGCCUGAAGAGCCUUGGUUUUUUG | 0.12 |
| GACCAAUCUGCCCUCAGAGCUCGAGAACAUCUUGGGAUGCAGAGGAGGCAUGCUUCGGUGGCGCGAUAGCGCCAACGUCCUCAACCUCCAAUGCAUCCCACCAUAUGAUGAUGCCUGAAGAGCCUUGGUUUUUUG | -6.64 |
| GACCAAUCUGCCCUCAGAGCUCGAGAACAUCUUCGGAUGCAGAGGAGGCAGGCUUCGGUGGCGCGAUAGCGCCAACGUCCUCAACCUCCAAUGCAUCCCACCACAUUAUGUUGCCUGAAGAGCCUUGGUUUUUUG | -4.03 |
